Data reported in publication PMC2733743.

Experiments:
[1] = biological target: endogenous cortactin of MTLn3 cells (rat (endogenous in MTLn3)) (UniProt Q66HL2); test: FRET or BRET
[2] = biological target: WT cortactin stably expressed in MTLn3 cells (endogenous cortactin knocked down) (rat); test: FRET or BRET
Chain of WT cortactin stably expressed in MTLn3 cells (endogenous cortactin knocked down) (rat) (Q66HL2 whole entry): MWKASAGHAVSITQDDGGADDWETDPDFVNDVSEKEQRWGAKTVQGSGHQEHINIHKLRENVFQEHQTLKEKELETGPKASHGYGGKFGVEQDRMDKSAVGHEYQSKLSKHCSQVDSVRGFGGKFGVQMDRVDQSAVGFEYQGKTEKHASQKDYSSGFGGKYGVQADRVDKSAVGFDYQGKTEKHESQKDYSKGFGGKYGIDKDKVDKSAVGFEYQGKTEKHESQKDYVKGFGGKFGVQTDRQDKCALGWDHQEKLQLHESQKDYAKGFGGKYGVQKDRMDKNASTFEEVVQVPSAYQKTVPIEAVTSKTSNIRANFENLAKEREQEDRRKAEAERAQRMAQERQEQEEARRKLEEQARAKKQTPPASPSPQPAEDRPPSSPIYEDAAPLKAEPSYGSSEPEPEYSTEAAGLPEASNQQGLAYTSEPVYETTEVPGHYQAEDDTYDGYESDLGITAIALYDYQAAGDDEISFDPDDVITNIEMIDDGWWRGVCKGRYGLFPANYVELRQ

## endogenous cofilin of MTLn3 cells (from UniProt P45592 1-166) (natural protein)
[1]
  FRET efficiency: 11.8%
[2]
  FRET efficiency: 4.2%
